B1: fMLFFGGK (peptide)
peptide: For-MLFFGGK
notes: Synthesized by Commonwealth Biotechnologies; also called non-fluorescent ligand
B2: formyl-MLFK-FITC (peptide)
peptide: For-MLFK
modifications: also: FITC conjugate, site not given here
notes: all other places print fMLFK-FITC; also called fMLFK-FITC; fluorescent ligand
B3: formyl peptide receptor (FPR), wild type, detergent-solubilized (receptor, human, UniProt P21462 1-350, looked up)
chain: METNSSLPTNISGGTPAVSAGYLFLDIITYLVFAVTFVLGVLGNGLVIWVAGFRMTHTVTTISYLNLAVADFCFTSTLPFFMVRKAMGGHWPFGWFLCKFVFTIVDINLFGSVFLIALIALDRCVCVLHPVWTQNHRTVSLAKKVIIGPWVMALLLTLPVIIRVTTVPGKTGTVACTFNFSPWTNDPKERINVAVAMLTVRGIIRFIIGFSAPMSIVAVSYGLIATKIHKQGLIKSSRPLRVLSFVAAAFFLCWSPYQVVALIATVRIRELLQGMYKEIGIAVDVTSALAFFNSCLNPMLYVFMGQDFRERLIHALPASLERALTEDSTQTSDTATNSTLPSAEVELQAK
notes: Used as a crude dodecyl maltoside extract of U937 membranes, not purified; In ternary complex assays it is occupied by the fluorescent ligand L^F; also called wild type receptor; soluble FPR
B4: FPR-GFP fusion protein (receptor)
chain: not shown
notes: also called R^F; receptor-GFP fusion protein
B5: FPR-Giα2 fusion protein (receptor, human;rat)
chain: METNSSLPTNISGGTPAVSAGYLFLDIITYLVFAVTFVLGVLGNGLVIWVAGFRMTHTVTTISYLNLAVADFCFTSTLPFFMVRKAMGGHWPFGWFLCKFVFTIVDINLFGSVFLIALIALDRCVCVLHPVWTQNHRTVSLAKKVIIGPWVMALLLTLPVIIRVTTVPGKTGTVACTFNFSPWTNDPKERINVAVAMLTVRGIIRFIIGFSAPMSIVAVSYGLIATKIHKQGLIKSSRPLRVLSFVAAAFFLCWSPYQVVALIATVRIRELLQGMYKEIGIAVDVTSALAFFNSCLNPMLYVFMGQDFRERLIHALPASLERALTEDSTQTSDTATNSTLPSAEVELQAKAAAMGCTVSAEDKAAAERSKMIDKNLREDGEKAAREVKLLLLGAGESGKSTIVKQMKIIHEDGYSEEECRQYRAVVYSNTIQSIMAIVKAMGNLQIDFADPQRADDARQLFALSCAAEEQGMLPEDLSGVIRRLWADHGVQACFGRSREYQLNDSAAYYLNDLERIAQSDYIPTQQDVLRTRVKTTGIVETHFTFKDLHFKMFDVGGQRSERKKWIHCFEGVTAIIFCVALSAYDLVLAEDEEMNRMHESMKLFDSICNNKWFTDTSIILFLNKKDLFEEKITQSPLTICFPEYTGANKYDEAASYIQSKFEDLNKRKDTKEIYTHFTCATDTKNVQFVFDAVTDVIIKNNLKDCGLF
notes: Solubilized from membranes; in the assays occupied by L^F (fMLFK-FITC), which gives the signal; also called FPR-αi2; FPR-Gαi2

No end group written: not given here. *: point of attachment. For = O=C* Where only a bound is given, the exact number is not on record here.

The experiment “FPR-GFP fusion protein” addresses B4. Briefly: flow cytometry, LR^FG assembly on αβγ DCNi beads, L varied; receptor depletes the ligand, so the filing says that the affinity of L for R^F is not revealed (FIG. 12C). How it is done: Standard LRG Assembly Assay. […] Each mixture was mixed by pipetting to ensure a uniform starting suspension of the beads in 96 V-well plates (Costar), and then mixed at low speed on a vortex mixer at 7° for two hours. The 10 μl assays were individually brought to 200 μl with 0.1% dodecyl maltoside in buffer A in 12×75 mm tubes for flow cytometric measurement of fluorescence of the beads. LRG assembly was defined as the difference between fluorescence without GTPγS and that with GTPγS. All determinations were done in duplicate.

For experiment [1], the target named is T1, formyl peptide receptor with a C-terminal hexahistidine tag (FPR:C-H6) (human, UniProt P21462 1-350).
T1 construct: Solubilized from membranes and captured on dextran chelate nickel (DCNi) beads; also called C-H6:FPR
T1 sequence: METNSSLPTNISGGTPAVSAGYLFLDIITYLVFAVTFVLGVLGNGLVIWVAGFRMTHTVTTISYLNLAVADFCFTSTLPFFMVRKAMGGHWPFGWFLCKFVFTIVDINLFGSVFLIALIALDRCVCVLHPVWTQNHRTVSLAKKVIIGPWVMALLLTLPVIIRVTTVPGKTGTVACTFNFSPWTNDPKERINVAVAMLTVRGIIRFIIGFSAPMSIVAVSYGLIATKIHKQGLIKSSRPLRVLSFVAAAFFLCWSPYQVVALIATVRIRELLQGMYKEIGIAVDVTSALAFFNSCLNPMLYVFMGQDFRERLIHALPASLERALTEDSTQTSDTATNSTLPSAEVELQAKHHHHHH
Description: flow cytometry, hexahistidine-tagged FPR on DCNi beads, L^F titrated (FIG. 9E).
Description: The initial bead fluorescence was measured for twenty seconds, then an anti-FITC antibody was mixed with the beads, and the decrease in bead fluorescence was measured for another 100 seconds. The line shown is a best fit to a plateau, followed by an exponential decrease to the bottom.

Experiment [2] deals with B3. Briefly: spectrofluorimetry, solubilized FPR, free ligand quenched with anti-FITC antibody, ligand-binding curve of FIG. 8B.
Description: Fluorescence was measured with an SLM 8000 spectrofluorimeter (SLM Instruments, Inc.) using the photon counting mode. The sample holder was fitted with a cylindrical cuvette adapter, which allowed the use of 200 µl samples in 7 mm×45 mm cylindrical cuvettes (Sienco; Wheat Ridge, Colo.), stirred with 2×5 mm stir bars (Bel-Art). […] Emission was monitored using a 520+/−10 nm filter (Corion) and a 500 nm long-pass filter (Kopp; Pittsburg, Pa.). Additions to samples during kinetic measurements were made through an injection port on the top of the sample holder with 10 µl glass syringes (Hamilton; Reno, Nev.).
Experiment [3] concerns the target T2, G protein heterotrimer αi3β1H6γ2 (human, UniProt P62873 2-340; P59768 2-68). Briefly: flow cytometry, L^FRG assembly on αi3β1H6γ2 DCNi beads, more nearly optimal conditions.
Experiment [4] addresses T2, G protein heterotrimer αi3β1H6γ2. Briefly: flow cytometry, αi3β1H6γ2 on DCNi beads, 60 nM FPR with 75 nM L^F; uncoated beads about 9,000 fluorophores. How it is done:
(§1) Each mixture was mixed by pipetting to ensure a uniform starting suspension of the beads in 96 V-well plates (Costar), and then mixed at low speed on a vortex mixer at 7° for two hours. The 10 μl assays were individually brought to 200 μl with 0.1% dodecyl maltoside in buffer A in 12×75 mm tubes for flow cytometric measurement of fluorescence of the beads. LRG assembly was defined as the difference between fluorescence without GTPγS and that with GTPγS. All determinations were done in duplicate.
(§2) The 10 μl assay was then diluted to 200 μl for spectrofluorimetric measurement. […] Uncoated beads were used in an assembly assay, bar 1, or were coated with G protein βγ only and used in an assembly assay, bar 2.

Experiment [5] deals with T3, β1H6γ2 dimer (human, UniProt P62873 2-340; P59768 2-68).
T3 construct: Purified from Sf9 cells and held on DCNi beads by the hexahistidine tag; also called βγ; Gβγ
T3 sequence (P62873 2-340, chain 1 of 2): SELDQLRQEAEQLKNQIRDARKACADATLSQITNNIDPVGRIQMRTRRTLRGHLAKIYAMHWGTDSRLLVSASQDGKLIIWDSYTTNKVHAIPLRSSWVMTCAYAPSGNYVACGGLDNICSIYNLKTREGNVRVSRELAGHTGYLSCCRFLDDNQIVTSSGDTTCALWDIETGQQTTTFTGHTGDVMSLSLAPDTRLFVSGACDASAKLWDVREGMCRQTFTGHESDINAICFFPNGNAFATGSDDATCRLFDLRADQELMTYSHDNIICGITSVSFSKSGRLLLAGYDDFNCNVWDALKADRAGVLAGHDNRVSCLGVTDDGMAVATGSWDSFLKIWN
T3 sequence (P59768 other isoform, or with tags, fused parts or gaps, chain 2 of 2): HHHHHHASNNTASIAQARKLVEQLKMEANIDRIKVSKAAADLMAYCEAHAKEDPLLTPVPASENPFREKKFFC
Description: flow cytometry of DCNi beads coated with βγ, 60 nM FPR and 75 nM L^F, with 0.1 mM GTPγS only background fluorescence. How it is done: as §1, §2

The target in experiment [6] is T2, G protein heterotrimer αi3β1H6γ2. Description: flow cytometry, LR^FG assembly on αβγ DCNi beads, FPR-GFP varied with saturating fMLFFGGK; binding nearly linear over the range (FIG. 12D).
The target is the same in experiment [7]. Briefly: flow cytometry, LR^FG assembly on αβγ DCNi beads against GTPγS background. How it is done: as §1
The target of experiment [8] is T3, β1H6γ2 dimer. Description: flow cytometry, β1H6γ2 on DCNi beads, 1 µM GTP against GTPγS background. The method, then: as §1

T2 sequence (P62873 2-340, chain 1 of 2): as the sequence (P62873 2-340, chain 1 of 2) above
T2 sequence (P59768 other isoform, or with tags, fused parts or gaps, chain 2 of 2): as the sequence (P59768 other isoform, or with tags, fused parts or gaps, chain 2 of 2) above

In the experiment with FPR-GFP fusion protein, B1 gave an EC50 of 115 nM.

On to B2, for which the Kd in experiment [1] is ~8 nM; in experiment [2] it was 4.8 nM.

With B3, in experiment [3], the signal to background is ≤ 4 ratio. Moreover, the “bead fluorescence against uncoated beads” value in experiment [4] came to 3 fold. The binding result with β1H6γ2 dimer [5] is on record as “no binding”.

In turn, B4 returned a Kd in experiment [6] of 1000 nM. The “total binding to background ratio” value in [7] was determined as 4.9 ratio.

For the molecule B5, the “total fluorescence to background ratio” value with β1H6γ2 dimer [8] was determined as 2.7 ratio.

The values are drawn from patent publication US7232659 (dated 2007).
